This note sets out measurements from patent publication EP4717706A1.

Experiment [1] addresses VLP2 (virus-like particles, capsid protein particles of AAV serotype 2) (AAV serotype 2 (AAV2)) (UniProt P03135). Put plainly: ELISA on immobilised VLP2 (purified protein, 5 µg/mL); start of alkali treatment, the reference of the ratio. Background: ELISA stands for enzyme-linked immunosorbent assay.
For experiment [2] the target is unchanged. Put plainly: ELISA on immobilised VLP2 (culture supernatant); A450 after 1:1 1 M NaOH, 15 min, 30°C divided by A450 untreated.
The target is the same in experiment [3]. Put plainly: ELISA on immobilised VLP2 (purified protein, 5 µg/mL); A450 after 1:1 1 M NaOH with 1 mM CaCl2, 30°C, 30 min divided by A450 at 0 time.
For experiment [4] the target is unchanged. As to the kind of experiment: ELISA on immobilised VLP2 (purified protein, 5 µg/mL); A450 after 1:1 1 M NaOH with 1 mM CaCl2, 30°C, 60 min divided by A450 at 0 time.
Experiment [5] shares this target. As to the kind of experiment: ELISA on immobilised VLP2 (purified protein, 5 µg/mL); A450 after 1:1 1 M NaOH with 1 mM CaCl2, 30°C, 30 min divided by A450 at 0 time. This is another data set of the same source.
For experiment [6] the target is unchanged. As to the kind of experiment: ELISA on immobilised VLP2 (purified protein, 5 µg/mL); A450 after 1:1 1 M NaOH with 1 mM CaCl2, 30°C, 20 min divided by A450 at 0 time.
For experiment [7] the target is unchanged. Put plainly: ELISA on immobilised VLP2 (purified protein, 5 µg/mL); A450 after 1:1 1 M NaOH with 1 mM CaCl2, 30°C, 60 min divided by A450 at 0 time. The source holds these as a separate data set.
The target is the same in experiment [8]. Described as above. The source holds these as a separate data set.
Experiment [9] has the same target. Put plainly: ELISA on immobilised VLP2 (purified protein, 5 µg/mL); A450 after 1:1 1 M NaOH with 1 mM CaCl2, 30°C, 30 min divided by A450 at 0 time. This is another data set of the same source.
Experiment [10] shares this target. As to the kind of experiment: ELISA on immobilised VLP2 (purified protein, 5 µg/mL); A450 after 1:1 1 M NaOH with 1 mM CaCl2, 30°C, 45 min divided by A450 at 0 time.
The target is the same in experiment [11]. As to the kind of experiment: ELISA on immobilised VLP2 (purified protein); A450 after 1:1 0.5 M NaOH, 30°C, 30 min divided by A450 at 0 time.
Experiment [12] shares this target. Put plainly: ELISA on immobilised VLP2 (purified protein); A450 after 1:1 0.5 M NaOH, 30°C, 60 min divided by A450 at 0 time.
Experiment [13] has the same target. Put plainly: ELISA on immobilised VLP2 (purified protein); start of alkali treatment, the reference of the ratio.
For experiment [14] the target is unchanged. Put plainly: ELISA on immobilised VLP2 (purified protein, 5 µg/mL); A450 after 1:1 1 M NaOH with 1 mM CaCl2, 30°C, 20 min divided by A450 at 0 time. This is another data set of the same source.

UniProt P03135, sequence (P03135 whole entry): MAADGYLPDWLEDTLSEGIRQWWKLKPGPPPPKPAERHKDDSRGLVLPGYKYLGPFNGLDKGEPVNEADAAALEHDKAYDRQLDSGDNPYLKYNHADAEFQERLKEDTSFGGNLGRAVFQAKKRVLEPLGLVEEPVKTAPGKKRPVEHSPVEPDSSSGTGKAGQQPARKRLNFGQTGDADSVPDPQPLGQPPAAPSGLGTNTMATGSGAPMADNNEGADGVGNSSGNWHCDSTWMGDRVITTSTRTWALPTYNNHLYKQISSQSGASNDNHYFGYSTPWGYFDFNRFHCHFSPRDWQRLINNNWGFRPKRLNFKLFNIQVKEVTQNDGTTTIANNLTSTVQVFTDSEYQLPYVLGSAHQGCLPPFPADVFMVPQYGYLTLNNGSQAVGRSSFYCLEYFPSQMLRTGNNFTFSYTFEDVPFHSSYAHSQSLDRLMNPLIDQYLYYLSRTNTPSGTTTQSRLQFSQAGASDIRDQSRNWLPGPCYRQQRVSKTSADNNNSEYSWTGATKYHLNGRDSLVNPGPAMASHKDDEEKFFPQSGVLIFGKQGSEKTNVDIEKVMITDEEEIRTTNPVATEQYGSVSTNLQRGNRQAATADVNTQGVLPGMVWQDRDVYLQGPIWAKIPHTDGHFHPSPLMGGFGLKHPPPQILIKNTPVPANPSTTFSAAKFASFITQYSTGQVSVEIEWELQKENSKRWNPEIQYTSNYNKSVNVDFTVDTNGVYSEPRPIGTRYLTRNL

B1: AVR28 (AVR25c with I366F, V394A, K455R) (receptor)
chain: MGSAGESDQITLPKHEAQLKVYVLLVPPKGEASTYDWQLITHPRDYSGEMEGEHSQFLKLSNLTPGLYEYRAVVEGQNAHSEGYANVTVEPGPRKNRPPIAIVSPQFQEISLPTTSAVIDGSQSTDDDKIVQYHWEELKGPLREERISEDTPILKLSNLVPGNYTFRLTVVDTDGATDSTTADLTVNKAVDHHHHHH
As for B1, the Remaining activity [%] in experiment [1] amounted to 100%; in experiment [2], 71.9%; in experiment [3], 42%; in experiment [4], 3%; in experiment [5], 22.5%; in experiment [6], 42.5%. For the same molecule, the Remaining activity [%] in experiment [7] came out at 6.29%; in experiment [8] it was 1.22%.

B2: AVR27d (AVR25c with K455R, T474R) (receptor)
chain: MGSAGESDQITLPKHEAQLKVYVLLVPPKGEASTYDWQLITHPRDYSGEMEGEHSQILKLSNLTPGLYEYRAVVEGQNAHSEGYVNVTVEPGPRKNRPPIAIVSPQFQEISLPTTSAVIDGSQSTDDDKIVQYHWEELKGPLREERISEDTPILKLSNLVPGNYRFRLTVVDTDGATDSTTADLTVNKAVDHHHHHH
B2: the figures for the Remaining activity [%] in [9], in experiment [1] and in experiment [10] were 15.8%, 100% and 5.11%, respectively.

B3: AVR25b (AVR21 with K338R, E401G, T426A, A461P) (receptor)
chain: MGSAGESDQITLPKHEAQLNVYVLLVPPRGEASTYDWQLITHPRDYSGEMEGEHSQILKLSNLTPGLYEYRAVVEGQNAHSEGYVNVTVEPGPRKNRPPIAIVSPQFQEISLPTTSAVIDGSQSTDDDKIVQYHWEELKGPLREEKISEDTPILKLSQLVPGNYTFRLTVVDTDGATDSTTADLTVNKAVDHHHHHH
Regarding B3, the Remaining activity [%] in experiment [11] came out at 100%; in experiment [12] it was 1.5%; in experiment [13] it was 100%.

B4: AVR29c (AVR25c with I366F, V394A, K455R, K497E) (receptor)
chain: MGSAGESDQITLPKHEAQLKVYVLLVPPKGEASTYDWQLITHPRDYSGEMEGEHSQFLKLSNLTPGLYEYRAVVEGQNAHSEGYANVTVEPGPRKNRPPIAIVSPQFQEISLPTTSAVIDGSQSTDDDKIVQYHWEELKGPLREERISEDTPILKLSNLVPGNYTFRLTVVDTDGATDSTTADLTVNEAVDHHHHHH
On to B4, for which the Remaining activity [%] in experiment [1] turned out to be 100%; in experiment [3], 57.7%; in [14] it was 78.7%; in [6], 93.2%; in [7] it was 15.7%; in [8], 2.39%. The Remaining activity [%] in [10] is 1.93%.

B5: AVR29a (AVR25c with I366F, V394A, K455R, T474R) (receptor)
chain: MGSAGESDQITLPKHEAQLKVYVLLVPPKGEASTYDWQLITHPRDYSGEMEGEHSQFLKLSNLTPGLYEYRAVVEGQNAHSEGYANVTVEPGPRKNRPPIAIVSPQFQEISLPTTSAVIDGSQSTDDDKIVQYHWEELKGPLREERISEDTPILKLSNLVPGNYRFRLTVVDTDGATDSTTADLTVNKAVDHHHHHH
Regarding B5, the Remaining activity [%] in experiment [1] was determined as 100%; in experiment [4], 5.07%; in experiment [5], 24.2%.

B6: AVR29d (AVR25c with I366F, V394A, K455R, V499I) (receptor)
chain: MGSAGESDQITLPKHEAQLKVYVLLVPPKGEASTYDWQLITHPRDYSGEMEGEHSQFLKLSNLTPGLYEYRAVVEGQNAHSEGYANVTVEPGPRKNRPPIAIVSPQFQEISLPTTSAVIDGSQSTDDDKIVQYHWEELKGPLREERISEDTPILKLSNLVPGNYTFRLTVVDTDGATDSTTADLTVNKAIDHHHHHH
B6: the Remaining activity [%] in experiment [1] was 100%; in experiment [14], 63%; in experiment [6] it was 68.6%; in experiment [8], 1.06%; in experiment [10], 4.47%.

B7: AVR26 (AVR21 with N329K, K338R, E401G, T426A, A461P) (receptor)
chain: MGSAGESDQITLPKHEAQLKVYVLLVPPRGEASTYDWQLITHPRDYSGEMEGEHSQILKLSNLTPGLYEYRAVVEGQNAHSEGYVNVTVEPGPRKNRPPIAIVSPQFQEISLPTTSAVIDGSQSTDDDKIVQYHWEELKGPLREEKISEDTPILKLSQLVPGNYTFRLTVVDTDGATDSTTADLTVNKAVDHHHHHH
B7: the Remaining activity [%] was 100% in experiment [11], 23.9% in experiment [12] and 100% in experiment [13].

B8: AVR27b (AVR25c with I366F, T474R) (receptor)
chain: MGSAGESDQITLPKHEAQLKVYVLLVPPKGEASTYDWQLITHPRDYSGEMEGEHSQFLKLSNLTPGLYEYRAVVEGQNAHSEGYVNVTVEPGPRKNRPPIAIVSPQFQEISLPTTSAVIDGSQSTDDDKIVQYHWEELKGPLREEKISEDTPILKLSNLVPGNYRFRLTVVDTDGATDSTTADLTVNKAVDHHHHHH
Consider B8, for which the Remaining activity [%] in [9] amounted to 17.1%; in [1] it was 100%; in [10] it was 4.54%.

B9: AVR24b (AVR21 with K338R, T426A, A461P) (receptor)
chain: MGSAGESDQITLPKHEAQLNVYVLLVPPRGEASTYDWQLITHPRDYSGEMEGEHSQILKLSNLTPGLYEYRAVVEGQNAHSEGYVNVTVEPEPRKNRPPIAIVSPQFQEISLPTTSAVIDGSQSTDDDKIVQYHWEELKGPLREEKISEDTPILKLSQLVPGNYTFRLTVVDTDGATDSTTADLTVNKAVDHHHHHH
On to B9, for which the figures for the Remaining activity [%] in experiment [11], in experiment [12] and in [13] were 89.1%, 17.6% and 100%, respectively.

B10: AVR29b (AVR25c with G314D, I366F, V394A, K455R) (receptor)
chain: MGSADESDQITLPKHEAQLKVYVLLVPPKGEASTYDWQLITHPRDYSGEMEGEHSQFLKLSNLTPGLYEYRAVVEGQNAHSEGYANVTVEPGPRKNRPPIAIVSPQFQEISLPTTSAVIDGSQSTDDDKIVQYHWEELKGPLREERISEDTPILKLSNLVPGNYTFRLTVVDTDGATDSTTADLTVNKAVDHHHHHH
B10: the Remaining activity [%] in experiment [1] was 100%; in experiment [14], 58.7%; in experiment [6], 63.7%; in experiment [8] it was 1.08%; in experiment [10], 1.31%.

B11: AVR27c (AVR25c with V394A, T474R) (receptor)
chain: MGSAGESDQITLPKHEAQLKVYVLLVPPKGEASTYDWQLITHPRDYSGEMEGEHSQILKLSNLTPGLYEYRAVVEGQNAHSEGYANVTVEPGPRKNRPPIAIVSPQFQEISLPTTSAVIDGSQSTDDDKIVQYHWEELKGPLREEKISEDTPILKLSNLVPGNYRFRLTVVDTDGATDSTTADLTVNKAVDHHHHHH
As for B11, the Remaining activity [%] in [9] amounted to 13.6%; in experiment [1], 100%; in [10], 1.73%.
